# Where two headings read alike, the source gives them in different places.
# Experiments:
# SAMHD1 WT [1] = target: T1, SAMHD1 WT (Homo sapiens, UniProt Q9Y3Z3 1-626); assay: fluorescence anisotropy
# SAMHD1 WT [2] = target: T1, SAMHD1 WT; assay: fluorescence anisotropy; remark: listed apart in the source
# SAMHD1 113-626 R451E = SAMHD1 113-626 R451E (Homo sapiens, UniProt Q9Y3Z3 113-626, R451E); assay: fluorescence anisotropy
# SAMHD1 C522A = SAMHD1 C522A (Homo sapiens, UniProt Q9Y3Z3 1-626, C522A); assay: fluorescence anisotropy
# Sequence of SAMHD1 C522A (Q9Y3Z3 whole entry C522A, the tested form may be a part): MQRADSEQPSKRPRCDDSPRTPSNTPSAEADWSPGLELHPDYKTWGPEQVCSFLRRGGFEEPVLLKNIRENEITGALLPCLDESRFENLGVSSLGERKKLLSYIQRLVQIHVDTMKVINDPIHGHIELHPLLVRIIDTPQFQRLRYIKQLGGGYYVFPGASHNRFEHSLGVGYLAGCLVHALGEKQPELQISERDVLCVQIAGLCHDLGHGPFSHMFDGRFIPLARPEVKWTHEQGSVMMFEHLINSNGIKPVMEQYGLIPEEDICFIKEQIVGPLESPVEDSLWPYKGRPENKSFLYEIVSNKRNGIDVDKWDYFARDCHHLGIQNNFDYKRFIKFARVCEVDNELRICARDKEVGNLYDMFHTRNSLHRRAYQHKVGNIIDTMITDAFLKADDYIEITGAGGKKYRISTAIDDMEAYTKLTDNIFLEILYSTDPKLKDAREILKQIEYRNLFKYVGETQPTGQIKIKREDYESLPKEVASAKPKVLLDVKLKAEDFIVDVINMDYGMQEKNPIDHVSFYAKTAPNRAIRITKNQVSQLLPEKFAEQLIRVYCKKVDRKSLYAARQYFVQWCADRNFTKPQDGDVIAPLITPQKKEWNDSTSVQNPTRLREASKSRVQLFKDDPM
# [3] = target: T2, SAMHD1 113-626 (HD domain) (Homo sapiens, UniProt Q9Y3Z3 113-626); assay: crystal structure
# T2 sequence (Q9Y3Z3 113-626): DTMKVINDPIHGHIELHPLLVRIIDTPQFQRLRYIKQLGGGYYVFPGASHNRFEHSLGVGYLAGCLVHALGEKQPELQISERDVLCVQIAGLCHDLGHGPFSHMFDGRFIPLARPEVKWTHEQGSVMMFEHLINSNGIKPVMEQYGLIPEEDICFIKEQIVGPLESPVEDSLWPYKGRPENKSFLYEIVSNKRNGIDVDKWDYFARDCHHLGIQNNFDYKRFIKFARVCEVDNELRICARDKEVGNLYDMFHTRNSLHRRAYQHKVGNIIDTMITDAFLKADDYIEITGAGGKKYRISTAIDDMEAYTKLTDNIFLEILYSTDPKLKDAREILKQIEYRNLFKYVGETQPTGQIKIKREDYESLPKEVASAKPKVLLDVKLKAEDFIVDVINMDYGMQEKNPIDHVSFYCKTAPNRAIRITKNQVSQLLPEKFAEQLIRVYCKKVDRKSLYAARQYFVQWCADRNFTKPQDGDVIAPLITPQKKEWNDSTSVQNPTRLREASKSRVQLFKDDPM
# [4] = target: T2, SAMHD1 113-626 (HD domain); assay: crystal structure; remark: listed apart in the source
# T1 sequence (Q9Y3Z3 whole entry): as the sequence (Q9Y3Z3 whole entry C522A, the tested form may be a part) above, with A522C counted along it
# Sequence of SAMHD1 113-626 R451E (Q9Y3Z3 113-626 R451E): as the sequence (Q9Y3Z3 113-626) above, with R339E counted along it
binder,measurement,setting,value
3' overhang (mixed) DNA 1: TGGAGAATCCCGGTGCCGAGGCCGCTCAATTGGTCGTAGACAGCTCTAGCACCGCTT DNA 2: TGAGCGGCCTCGGCACCGGGATTCTCCA,binding result,SAMHD1 WT [1],binds
3' fork (mixed) DNA 1: TGGAGAATCCCGGTGCCGAGGCCGCTCAATTGGTCGTAGACAGCTCTAGCACCGCTT DNA 2: AATTGTGAGCGGCCTCGGCACCGGGATTCTCCA,binding result,SAMHD1 WT [2],binds
GACAGTGTTGAGACAGGACCAGACAGGTAG (ssDNA) [ssDNA 30mer],binding result,SAMHD1 113-626 R451E,no binding
dsDNA 30mer (dsDNA) DNA 1: GACAGTGTTGAGACAGGACCAGACAGGTAG DNA 2: CTACCTGTCTGGTCCTGTCTCAACACTGTC,binding result,SAMHD1 C522A,no binding
CATTG (ssDNA) [CATTG 5mer],binding result,[3],binds
CATGT (ssDNA) [CATGT 5mer],binding result,[4],binds

# Source: publication PMC10359594
